Test results: patent US9745384B2, “Peptides useful for modulating histone demethylase function” (The Brigham and Women's Hospital, Inc., priority 2012, dated 2017)

Target: T1, LSD2 (Homo sapiens, UniProt Q8NB78)
T1 sequence (Q8NB78 1-822): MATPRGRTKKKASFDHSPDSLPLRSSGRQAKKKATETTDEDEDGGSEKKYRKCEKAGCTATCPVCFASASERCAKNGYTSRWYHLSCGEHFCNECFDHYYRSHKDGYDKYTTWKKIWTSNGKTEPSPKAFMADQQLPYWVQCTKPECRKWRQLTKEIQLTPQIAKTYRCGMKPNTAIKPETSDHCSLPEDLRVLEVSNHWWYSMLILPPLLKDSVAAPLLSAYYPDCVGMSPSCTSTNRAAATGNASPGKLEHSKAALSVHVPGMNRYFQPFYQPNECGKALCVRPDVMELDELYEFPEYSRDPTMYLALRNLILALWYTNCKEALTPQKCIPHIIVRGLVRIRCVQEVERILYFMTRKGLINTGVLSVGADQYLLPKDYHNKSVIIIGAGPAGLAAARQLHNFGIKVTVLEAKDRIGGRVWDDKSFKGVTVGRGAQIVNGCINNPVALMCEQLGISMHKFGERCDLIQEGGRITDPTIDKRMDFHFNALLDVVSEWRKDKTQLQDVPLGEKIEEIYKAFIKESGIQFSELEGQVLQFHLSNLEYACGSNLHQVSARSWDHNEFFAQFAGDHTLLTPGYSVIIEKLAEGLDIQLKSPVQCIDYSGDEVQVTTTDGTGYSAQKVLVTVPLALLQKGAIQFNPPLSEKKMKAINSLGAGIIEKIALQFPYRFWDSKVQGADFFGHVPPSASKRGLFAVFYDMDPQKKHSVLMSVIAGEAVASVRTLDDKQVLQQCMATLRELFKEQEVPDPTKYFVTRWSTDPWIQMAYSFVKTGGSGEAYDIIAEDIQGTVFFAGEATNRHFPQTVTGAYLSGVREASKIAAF
Assay: H3K4me2 peptide demethylation assay (MALDI-TOF)
Assay type: biochemical
Parameters: 0.15 μM or 1.2 μM purified LSD2 (residues 51-822); His6 (cleaved yes); made in house; host or cells: Sf9 insect cells (baculovirus)
Details: longer H3K4me2 peptide residues 1-44
Procedure: FIGS. 12A-12F depict analysis of LSD2 demethylation activity and mutational analysis. […] Demethylation products were analyzed by MALDI-TOF mass spectrometry. 0.15 μM LSD2 can efficiently demethylate the longer H3K4me2 peptide (1-21), but has no detectable activity on the shorter histone peptide (1-15), demethylation of which requires high concentration (1.2 μM) of LSD2. […] It indicates the importance of histone residue 16-21 to LSD2 enzymatic activity and NPAC cofactor activity, supporting our model that NPAC assists enzyme-substrate interactions by creating a new binding site for H3 L20 in the LSD2-NPAC complex. FIG. 12C depicts LSD2 demethylation and NPAC cofactor activity on longer H3K4me2 peptide (1-44). […] The cofactor activity of wild-type NPAC was readily detected under the same conditions. […] It is noted that no obvious cofactor effect of F217A peptide or linker regions was detected in nucleosome and peptide demethylation assays (FIG. 6E and data not shown). […]
Histone peptides are purchased from Millipore, or custom synthesized. The purity of all peptides are >95% as determined by HPLC and mass spectrometry. […] The products were desalted through a C18 Ziptip (Millipore) and analyzed on a MALDI-TOF micro MX mass spectrometer (ABI 4700, Applied Biosystems). […]

B1: NPAC: full-length human NPAC/GLYR1 (protein ID: Q49A26), recombinant, LSD2 cofactor (protein)
chain: MAAVSLRLGDLVWGKLGRYPPWPGKIVNPPKDLKKPRGKKCFFVKFFGTEDHAWIKVEQLKPYHAHKEEMIKINKGKRFQQAVDAVEEFLRRAKGKDQTSSHNSSDDKNRRNSSEERSRPNSGDEKRKLSLSEGKVKKNMGEGKKRVSSGSSERGSKSPLKRAQEQSPRKRGRPPKDEKDLTIPESSTVKGMMAGPMAAFKWQPTASEPVKDADPHFHHFLLSQTEKPAVCYQAITKKLKICEEETGSTSIQAADSTAVNGSITPTDKKIGFLGLGLMGSGIVSNLLKMGHTVTVWNRTAEKCDLFIQEGARLGRTPAEVVSTCDITFACVSDPKAAKDLVLGPSGVLQGIRPGKCYVDMSTVDADTVTELAQVIVSRGGRFLEAPVSGNQQLSNDGMLVILAAGDRGLYEDCSSCFQAMGKTSFFLGEVGNAAKMMLIVNMVQGSFMATIAEGLTLAHVTGQSQQTLLDILNQGQLASIFLDQKCQNILQGNFKPDFYLKYIQKDLRLAIALGDAVNHPTPMAAAANEVYKRAKALDQSDNDMSAVYRAYIH
With B1 as the molecule, how does the “Cofactor activity: stimulation of LSD2 demethylation of H3K4me2 peptide” value read?
The value was “can robustly stimulate LSD2 demethylation of the longer peptide (1-44)”.
